From patent publication US9114104B2, “Proteinase K inhibitors, methods and compositions therefor” (Life Technologies Corporation, priority 2008, dated 2015)
Where “and” joins values, the source holds several entries; their conditions need not be identical. Identical values can stand only once.

Tests used:
Type in all cases: biochemical
proteinase K [1] = target: T1, proteinase K (Parengyodontium album, UniProt P06873); test: Detection of β-actin RNA in HeLa cell lysates after stop solution (in vitro validation); settings: FIG. 6; ~10,000 HeLa cells lysed, β-actin RT-PCR
T1 sequence (P06873 106-384): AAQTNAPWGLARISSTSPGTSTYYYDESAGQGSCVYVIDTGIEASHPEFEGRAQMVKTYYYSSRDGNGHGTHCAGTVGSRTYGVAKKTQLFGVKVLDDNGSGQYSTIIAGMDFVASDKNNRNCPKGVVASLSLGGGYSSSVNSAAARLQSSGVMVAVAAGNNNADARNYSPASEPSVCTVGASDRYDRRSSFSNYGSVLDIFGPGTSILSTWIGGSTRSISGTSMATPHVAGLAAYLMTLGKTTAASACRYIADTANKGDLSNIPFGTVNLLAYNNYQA
Protocol: HeLa cells (˜10,000 cells) were lysed in 50 μl lysis solution for 5 minutes at room temperature. Stop solution (5 μl) was then added; the lysate-stop solution was mixed, and incubated for 2 minutes at room temperature. A volume of 10 μl of stopped lysate was added to a 50 μl RT reaction followed by addition of 4 μl of RT reaction into a 20 μl PCR reaction using the β-actin primers/probe of the TaqMan® Gene Expression Cells-to-CT™ Kit (Applied Biosystems).

proteinase K [2] = target: T1, proteinase K; test: Indirect linked assay: proteinase K inhibition read out by reverse transcriptase real time PCR of Xeno RNA template (Cells-to-CT kit); settings: for lowest concentration in the stopped mixture with inhibitory activity for proteinase K: Example 2, FIG. 1, tested 1 mM to 0.05 mM in stopped mixture; for proteinase K inhibitory activity: all concentrations tested; for Ct (cycle threshold): all concentrations tested (1 mM to 0.05 mM), no Xeno RNA detected
Source text: The present example provides for inhibition of proteinase K in the context of preparing samples for nucleic acid detection. Said preparation of samples is described by pending U.S. patent application Ser. No. 12/122,274 filed May 16, 2008 entitled “Sample Preparation for In Situ Nucleic Acid Analysis, Methods and Compositions Therefor,” hereby incorporated by reference in its entirety. Embodiments of said patent application provide a process for preparing a sample containing RNA for in situ analysis of RNA or a surrogate thereof. In some embodiments, the process comprises contacting the sample containing RNA with a lysis mixture comprising a polypeptide having protease activity under conditions and for a time to produce a lysate, and admixing at least a portion of the lysate with a stop mixture that comprises an inhibitor of the polypeptide having protease activity at substantially the same temperature as the contacting step to form a stopped mixture. The resultant stopped mixture is preferably compatible with in situ reverse transcriptase and DNA polymerase reactions.
Methoxysuccinyl tetrapeptide chloromethylketone compounds synthesized as set forth in Example 1 herein were analyzed for inhibitory activity of proteinase K in such stopped mixtures as described below. Functional validation for the nucleic acid detection system using inhibitors of embodiments herein was carried out by measuring mRNA levels in biological samples using the TaqMan® Gene Expression Cells-to-CT™ Kit and the TaqMan® Cells-to-CT™ Control Kit (Applied Biosystems, Foster City, Calif.). MicroAmp® optical 96-well reaction plates were purchased from Applied Biosystems. Disposable reagent reservoirs were purchased from VistaLab Technologies, Inc (Mt. Kisco, N.Y.). Reverse transcription (RT) reactions were performed at 37° C. for 60 min, 95° C. for 5 min, and cooled to 4° C. by using GeneAmp® PCR systems 9700 (Applied Biosystems). Real time PCR was performed by using 7500 Fast Real-Time PCR System. (Applied Biosystems).
The present indirect linked assay measures the amount of inhibition of proteinase K activity by assaying reverse transcriptase real time PCR amplification of a template, which amplification is dependent upon reverse transcriptase activity.
Stop solutions (100 μl) contained the following reagents (10× concentration):
Test inhibitor, 11 mM (final concentration when diluted into stopped mixture is 1 mM). Test inhibitor was also used at concentrations such that, when diluted with a lysis mixture to form a stopped mixture as described below, the final concentration of inhibitor in the stopped mixture was 0.75 mM, 0.5 mM, 0.25 mM, 0.10 mM, 0.05 mM and 0 mM (control).
Proteinase K lysis solution (50 μL (no added DNase)) from the TaqMan® gene expression Cells-to-CT™ kit (Applied Biosystems) was aliquoted into 18 tubes. To the test samples (these are a working equivalent to lysis mixtures in the Cells-to-CT™ workflow), stop solution (5 μL) was added; the tubes were mixed and held for 2 min at room temperature. For the control reactions, 50 μl of proteinase K buffer was mixed with 5 μl of stop mix without inhibitor and the resulting reaction mixture was heated at 95° C. for 10 min to thermally inactivate the proteinase K reaction. Next, reverse transcription reagents were prepared, i.e. 15 μL 2×RT buffer, and 1.5 μL of 20×RT enzyme mix, were aliquoted and mixed in the wells of a 96 well plate. To this RT solution, 13.5 μL of each proteinase K containing stopped mixture was added and the solution was mixed well. The resulting mixtures were incubated at room temperature for 1 hr for residual proteinase K activity to degrade the RT enzyme. After 1 hr incubation at room temperature, 1 μL of Xeno™ RNA Control template (Applied Biosystems P/N 4386995 diluted to 25,000 copies/μL in 10 ng/μL poly A) was added to all wells except for the no template control wells. […]

proteinase K [3] = target: T1, proteinase K; test: Direct assay: residual proteinase K activity on BSA substrate, precast SDS protein gel
Protocol: For the precast SDS denaturing protein gel analysis data of FIG. 3, proteinase K (50 μl of 100 μg/ml) lysis mixture without DNase (as for Example 2) was mixed with 5 μl of stop solution with varying amounts of MeOSuc-AAPF-CH2Cl (SEQ ID NO:5) and incubated for 10 min at room temperature. Ultrapure BSA (10 μl of 5 mg/ml, Applied Biosystems) was added to each sample and the samples were held for 10 min at room temperature. The reaction mixture was heated for 30 min at 95° C. and analyzed using precast protein gels (BIO-RAD, Hercules, Calif.). From the 65 μl of total reaction mixture, 10 μl reaction mixture was mixed with 5 μl of gel loading dye and further heated at 95° C. for 5 min. Then, the reactions were kept on ice for 2 min and loaded on the gel. Control reactions, with and without BSA, were also carried out. […]
The precast protein gel was run at 120 V for 1 h using 1× Tris/glycine/SDS buffer (BIO-RAD, Hercules, Calif.). […] The gel was analyzed using AlphaEase™ FC software (Alpha Innotech, San Leandro, Calif.). […]
Proteinase K (50 μl of 100 μg/ml) lysis mixture without DNase (as for Example 2) was mixed with 5 μl of stop solution with varying amounts of MeOSuc-AAAPL-CH2Cl (SEQ ID NO:7) and incubated for 10 min at room temperature. […] The reaction mixture was heated for 30 min at 95° C. and analyzed using precast protein gels (BIO-RAD, Hercules, Calif.). […]

proteinase K [4] = target: T1, proteinase K; test: Direct assay: residual proteinase K activity on BSA substrate, Protein 80 Bioanalyzer chip; settings: FIG. 2
Protocol: A direct assay for inhibition of proteinase K activity by MeOSuc-AAPF-CH2Cl (SEQ ID NO:5) was carried out using bovine serum albumin (BSA) as substrate and analyzing products using each Bioanalyzer chips and precast protein gels. Such direct assays were carried out to separate inhibition of proteinase K by a test inhibitor from any effects the stopped mixture may have on an RT-PCR reaction.
The reaction mixtures included the proteinase K solution (50 μL, 100 μg/ml) mixed with 5 μL of stop solution having varying amounts of tetrapeptide, MeOSuc-AAPF-CH2Cl (SEQ ID NO:5), as for Example 2. Incubation was for 10 min at room temperature. To assay for proteinase K activity, ultrapure BSA (12 μL of 50 mg/ml) was added to each sample and the samples were held for 10 min at room temperature. Resultant mixtures were heated for 30 min at 95° C. and analyzed using a Protein 80 Bioanalyzer chip (2100 Bioanalyzer, Agilent, Santa Clara, Calif.). The Bioanalyzer protein gel data is provided in FIG. 2, in which intact Ultrapure BSA (Applied Biosystems) is at about 70 kDa, and proteinase K is at about 35 kDa. The lanes of FIG. 2 are labeled as follows from left to right: Ladder; BSA only; No BSA (proteinase K only); MeOSuc-AAPF-CH2Cl (SEQ ID NO:5) in the stopped mixture at 1 mM, 0.75 mM, 0.5 mM, 0.25 mM, 0.125 mM, and 0 mM.

MeOSuc-AlaAlaAlaProPhe-CH2Cl (AAAPF; HELM PEPTIDE1{[COC(=O)CCC(=O)[*:2]].A.A.A.P.F.[ClC[*:1]]}$$$$V2.0; SMILES COC(=O)CCC(=O)N[C@@H](C)C(=O)N[C@@H](C)C(=O)N[C@@H](C)C(=O)N1CCC[C@H]1C(=O)N[C@@H](Cc1ccccc1)C(=O)CCl) [MeOSuc-AAAPF-CH2Cl]
concentration providing effective inhibition of proteinase K (proteinase K [1]): about 0.1 mM | concentration required to achieve the same level of inhibition as MeOSuc-AAPF-CH2Cl at 0.05 mM (proteinase K [2]; FIG. 5 compared to FIG. 1): 0.1 mM

MeOSuc-AlaAlaAlaProVal-CH2Cl (AAAPV; HELM PEPTIDE1{[COC(=O)CCC(=O)[*:2]].A.A.A.P.V.[ClC[*:1]]}$$$$V2.0; SMILES COC(=O)CCC(=O)N[C@@H](C)C(=O)N[C@@H](C)C(=O)N[C@@H](C)C(=O)N1CCC[C@H]1C(=O)N[C@H](C(=O)CCl)C(C)C) [MeOSuc-AAAPV-CH2Cl]
concentration providing effective inhibition of proteinase K (proteinase K [1]): 0.5 mM | concentration required to achieve the same level of inhibition as MeOSuc-AAPV-CH2Cl at 0.25 mM (proteinase K [2]; FIG. 5): 0.75 mM

methoxysuccinyl-AAAPL-chloromethyl ketone (HELM PEPTIDE1{[COC(=O)CCC(=O)[*:2]].A.A.A.P.L.[ClC[*:1]]}$$$$V2.0; SMILES COC(=O)CCC(=O)N[C@@H](C)C(=O)N[C@@H](C)C(=O)N[C@@H](C)C(=O)N1CCC[C@H]1C(=O)N[C@@H](CC(C)C)C(=O)CCl) [MeOSuc-AAAPL-CH2Cl]
lowest concentration capable of inhibiting proteinase K (BSA present in gel lane) (proteinase K [3]; FIG. 7, tested 1 mM to 0.05 mM in stopped mixture): 0.1 mM and 0.10 mM | concentration providing effective inhibition of proteinase K (proteinase K [1]): about 0.1 mM | lowest concentration in the stopped mixture inhibitory for proteinase K activity (proteinase K [2]; Example 6, FIG. 5, tested 1 mM to 0.05 mM): about 0.05 mM

methoxysuccinyl-AAPF-chloromethyl ketone (HELM PEPTIDE1{[COC(=O)CCC(=O)[*:2]].A.A.P.F.[ClC[*:1]]}$$$$V2.0; SMILES COC(=O)CCC(=O)N[C@@H](C)C(=O)N[C@@H](C)C(=O)N1CCC[C@H]1C(=O)N[C@@H](Cc1ccccc1)C(=O)CCl) [MeOSuc-AAPF-CH2Cl]
inhibiting concentration relative to MeOSuc-AAPV-CH2Cl (proteinase K [3]; FIG. 3, compare lanes at 0.5 mM and 0.25 mM): at least half that of MeOSuc-AAPV-CH2Cl | lowest concentration in the stopped mixture with inhibitory activity for proteinase K (proteinase K [2]; listed as MeOSuc-AlaAlaProPhe-CH2Cl): 0.05 mM | average Ct (cycle threshold) (proteinase K [2]; FIG. 1, 0.05 mM inhibitor): about 30 | lowest concentration capable of inhibiting proteinase K (proteinase K [4]; 10 min incubation with proteinase K (100 μg/ml) before BSA): 0.125 mM | concentration capable of inhibiting proteinase K when incubated for a longer period prior to BSA (proteinase K [4]; longer incubation with proteinase K before addition of BSA substrate): < 0.125 mM

methoxysuccinyl-AAPL-chloromethyl ketone (HELM PEPTIDE1{[COC(=O)CCC(=O)[*:2]].A.A.P.L.[ClC[*:1]]}$$$$V2.0; SMILES COC(=O)CCC(=O)N[C@@H](C)C(=O)N[C@@H](C)C(=O)N1CCC[C@H]1C(=O)N[C@@H](CC(C)C)C(=O)CCl) [MeOSuc-AAPL-CH2Cl]
concentration providing effective inhibition of proteinase K (proteinase K [1]): about 0.1 mM

methoxysuccinyl-APAF-chloromethyl ketone (HELM PEPTIDE1{[COC(=O)CCC(=O)[*:2]].A.P.A.F.[ClC[*:1]]}$$$$V2.0; SMILES COC(=O)CCC(=O)N[C@@H](C)C(=O)N1CCC[C@H]1C(=O)N[C@@H](C)C(=O)N[C@@H](Cc1ccccc1)C(=O)CCl) [MeOSuc-APAF-CH2Cl]
proteinase K inhibitory activity (proteinase K [2]; FIG. 1): inactive at all concentrations tested | Ct (cycle threshold) (proteinase K [2]; FIG. 1): 40

methoxysuccinyl-APAL-chloromethyl ketone (HELM PEPTIDE1{[COC(=O)CCC(=O)[*:2]].A.P.A.L.[ClC[*:1]]}$$$$V2.0; SMILES COC(=O)CCC(=O)N[C@@H](C)C(=O)N1CCC[C@H]1C(=O)N[C@@H](C)C(=O)N[C@@H](CC(C)C)C(=O)CCl) [MeOSuc-APAL-CH2Cl]
lowest concentration in the stopped mixture with inhibitory activity for proteinase K (proteinase K [2]): about 0.5 mM

methoxysuccinyl-APAV-chloromethyl ketone (HELM PEPTIDE1{[COC(=O)CCC(=O)[*:2]].A.P.A.V.[ClC[*:1]]}$$$$V2.0; SMILES COC(=O)CCC(=O)N[C@@H](C)C(=O)N1CCC[C@H]1C(=O)N[C@@H](C)C(=O)N[C@H](C(=O)CCl)C(C)C) [MeOSuc-APAV-CH2Cl]
proteinase K inhibitory activity (proteinase K [2]; FIG. 1): inactive at all concentrations tested | Ct (cycle threshold) (proteinase K [2]; FIG. 1): 40
